Reference: PMC3585358, “Identification and Multidimensional Optimization of an Asymmetric Bispecific IgG Antibody Mimicking the Function of Factor VIII Cofactor Activity” (PLoS ONE, 2013)
One block for each binder: values may come before it.

Tests used:
[1] = target: T1, human factor IXa (Homo sapiens, UniProt P00740); assay: SPR; Biacore T200; anti-FIXa or anti-FX monospecific antibodies captured on MabSelect SuRe Ligand (recombinant Protein A) immobilized on a CM4 chip; natalizumab (human IgG4) on the reference cell; 0, 80, 160, 320, 640 or 1,280 nM human FIXa or FX injected at 30 uL/min; 10 mM HEPES pH 7.4, 150 mM NaCl, 0.05% surfactant P20, 2.5 mM CaCl2; conditions: both partners purified
T1 construct: also called FIXa; source: bought: Enzyme Research Laboratories (purified human coagulation factors; the source is stated for the enzymatic assay)

[2] = target: T2, human factor X (Homo sapiens, UniProt P00742); assay: as above; conditions: both partners purified
T2 construct: human coagulation factor X (zymogen), light chain; also called FX; source: bought: Enzyme Research Laboratories (purified human coagulation factors; the source is stated for the enzymatic assay)
T2 sequence (P00742 41-179, chain 1 of 2): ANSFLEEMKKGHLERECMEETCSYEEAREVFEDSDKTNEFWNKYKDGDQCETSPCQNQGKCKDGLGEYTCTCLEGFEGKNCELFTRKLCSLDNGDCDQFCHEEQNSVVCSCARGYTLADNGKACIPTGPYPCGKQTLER
T2 sequence (P00742 183-488, chain 2 of 2): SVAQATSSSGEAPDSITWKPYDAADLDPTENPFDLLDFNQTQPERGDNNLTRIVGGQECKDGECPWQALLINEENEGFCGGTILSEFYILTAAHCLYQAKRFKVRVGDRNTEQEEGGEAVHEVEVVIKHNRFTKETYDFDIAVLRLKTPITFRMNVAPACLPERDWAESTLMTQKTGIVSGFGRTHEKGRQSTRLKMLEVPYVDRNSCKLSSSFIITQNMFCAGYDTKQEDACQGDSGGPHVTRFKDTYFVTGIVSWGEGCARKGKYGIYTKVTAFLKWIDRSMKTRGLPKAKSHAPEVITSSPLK

T1 sequence (P00740 47-191, chain 1 of 2): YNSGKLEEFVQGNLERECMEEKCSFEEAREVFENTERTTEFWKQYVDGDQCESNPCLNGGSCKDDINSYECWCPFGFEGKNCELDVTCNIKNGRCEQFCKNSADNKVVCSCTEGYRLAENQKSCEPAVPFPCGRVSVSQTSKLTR
T1 sequence (P00740 227-461, chain 2 of 2): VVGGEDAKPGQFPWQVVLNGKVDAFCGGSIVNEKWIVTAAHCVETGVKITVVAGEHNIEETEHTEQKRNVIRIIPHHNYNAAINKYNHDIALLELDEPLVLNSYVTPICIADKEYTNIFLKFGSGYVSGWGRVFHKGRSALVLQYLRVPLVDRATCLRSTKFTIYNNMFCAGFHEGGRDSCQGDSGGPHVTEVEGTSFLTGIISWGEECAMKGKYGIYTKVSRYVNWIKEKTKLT

binding result [1]: binds
B1: anti-FIXa monospecific IgG of hBS910 (anti-FIXa heavy chain and common light chain) (antibody, V domains shown)
VH: QVQLVESGGGLVQPGGSLRLSCAASGFTFSYYDIQWVRQAPGKGLEWVSSISPSGQSTYYRREVKGRFTISRDNSKNTLYLQMNSLRAEDTAVYYCARRTGREYGGGWYFDYWGQGTLVTVSS
VL: DIQMTQSPSSLSASVGDRVTITCKASRNIERQLAWYQQKPGQAPELLIYQASRKESGVPDRFSGSRYGTDFTLTISSLQPEDIATYYCQQYSDPPLTFGGGTKVEIK
notes: as the anti-FIXa heavy chain of m1; as the common light chain of m1; The SPR methods say that monospecific antibodies were captured; also called monospecific anti-FIXa antibody; anti-FIXa homodimeric antibody; source: HEK293 cells, transfected; filtrated culture supernatants or Protein A purified antibodies; copies: 2 + 2

binding result [2]: binds
B2: anti-FX monospecific IgG of hBS910 (anti-FX heavy chain and common light chain) (antibody, V domains shown)
VH: QVQLVQSGSELKKPGASVKVSCKASGYTFTDNNMDWVRQAPGQGLEWMGDINTRSGGSIYNEEFQDRVIMTVDKSTDTAYMELSSLRSEDTATYHCARRKSYGYYLDEWGEGTLVTVSS
VL: B1 VL
notes: as the anti-FX heavy chain of m1; as the common light chain of m1; The SPR methods say that monospecific antibodies were captured; also called monospecific anti-FX antibody; anti-FX homodimeric antibody; source: HEK293 cells, transfected; filtrated culture supernatants or Protein A purified antibodies; copies: 2 + 2
